In patent US20250376535A1 (BEIJING STARMAB BIOMED TECHNOLOGY, published 2025):
Changes are numbered by the printed parent chain.

T1: recombinant human IL-22 (human, UniProt Q9GZX6 34-179)
T1 construct: also called rh-IL22
T1 sequence: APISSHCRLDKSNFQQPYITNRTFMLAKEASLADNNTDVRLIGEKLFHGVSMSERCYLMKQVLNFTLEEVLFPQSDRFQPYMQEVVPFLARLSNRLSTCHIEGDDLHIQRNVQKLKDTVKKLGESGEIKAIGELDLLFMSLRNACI

B1: pgDD40-HZ-15 (VHH, not shown: small tags and cut ends)
VHH: EVQLVESGGGLVQAGGSLRLSCAASGFTFDDYAIGWFRQAPGKEREGVSCLSKNVGNTYYADSVKGRFTISSDNAKNTVYLQMNSLKPEDTAVYYCAKGSGYGCYDFPRYAVWGQGTQVTVSS
B2: pgDD40-HZ-28 (VHH, not shown: small tags and cut ends)
VHH: EVQLVESGGGLVQAGGSLRLSCVASERTFTPVRMGWFRQAPGKEREIVAAITWSDGSTYYADAVKGRFTISRDNALNAVYLQIDSLKPEDTAVYVCAASTSPYSTHLQFRYWGQGTQVTVSS
B3: pgDD40-HZ-47 (VHH, not shown: small tags and cut ends)
VHH: QVQLVESGGGLVQPGGSMRLSCSASGFSISVYWMSWVRRAPGKGLEWVSNLGADGVTAQYSDSVKGRFTIARDTAKNTLYLQMNSLKPEDTAVYYCNAMTGMNPAEEEAYWGQGTQVTVSS
B4: pgDD40-SZ-7 (VHH, not shown: small tags and cut ends)
VHH: QVQLVESGGALAQPGGSLRLSCEASATVRSVNAMAWYRQGPGKPRELVANITSGDTTYYADSVKGRFTLSREGARNTVYLQMNSLKPEDTAVYQCNIHYTSTGGIRRDYWGRGTQVTVSS
B5: pgDD40-SZ-1 (VHH, not shown: small tags and cut ends)
VHH: B4 VHH with A26T, T27N, G54D, T56A, I97V, T102W
B6: pgDD40-SZ-2 (VHH, not shown: small tags and cut ends)
VHH: B4 VHH with Q1E, V28I, L47M
B7: pgEG-SX39 (VHH, not shown: small tags and cut ends)
VHH: QVQVAESGGGLVQAGESLRLSCTASGSISTINAVRWYRQTPGKQREFVAYISTDGGTDYADPVKGRFTISRDNAKNTWFLQMNSLKPEDTGVYMCNVVVTPYAYWGQGTQVTVSS
B8: pgEG-SX52 (VHH, not shown: small tags and cut ends)
VHH: QVQLVESGGGLVKAGKSLRLSCAASVSSFDTYTMGWYRQAPGKQREQVAIITPGAGTHYADSVKGRFTISRDNAKNTVYLQMSSLKLEDTAVYYCKARHRITGYDYWGQGTQVTVSS
B9: pgEG-SX55 (VHH, not shown: small tags and cut ends)
VHH: QVQLVESGGGLVQPGGSLRLSCAGTGLIFTTYVMGWYRQAPGKQRELVAIVTNGGGTHYADFVKGRFTISRDNAKNTVSLQMNLLKPEDTAVYYCNARHLVRPGTNDYWGQGTLVTVSS
B10: pgEG-SX56 (VHH, not shown: small tags and cut ends)
VHH: QVQLVESGGGFVQAGGSLRLSCAASGRFLSIADMDWYRRVPGKQRELVASITRAGDTALEDSVKGRFTISRDNAKNTVHLQMNSVKPEDTAVYYCRADVTRSGTPYFEVWGQGTLVTVSS
B11: MSA2 (VHH)
VHH: EVQLVESGGGLAQAGGFLRLSCADSGHSFSLYAMAWFRQTPEKEREFVAAISSSGGDTYYADSVKGRFTISRENAKNTVYLQMDSLKPGDTAVYFCAGNYYTSQLMRGMYEHWGQGTQVTVSS
notes: Llama single domain antibody with C-terminal His-tag, made in HEK293; not shown: C-terminal His-tag
B12: MSA6 (VHH)
VHH: QVQLVESGGGLVQPGGSLRLSCAASGLPSRVMGWFRQAAGKEREFVASISVSGIDTRYGDSVKGRFTISRDNTKSSLYLQMNSLKPEDTAVYYCAATDGQGNYRHWGQGTQVTVSS
notes: as for B11
B13: IL22-A3 (VHH)
VHH: QVQLVESGGGLVQPGGSLRLSCEASGRTFSSVSMGWFRQAPGKERVIVAAADWSGTTYYTGSLKGRFTISRDNAKNMVYLQMNSLKPEDTAVYYCAASDPRRSAYKYWGQGTQVTVSS
notes: Llama single domain antibody with C-terminal His-tag; not shown: C-terminal His-tag
B14: IL22-223 (VHH)
VHH: QVQLVESGGGLAQPGGSLRLSCAVSGFTLNYYVIAWFRQAPGKEREGVSCISSSDGSTYYTDSVKGRFTISRDNAKNTVYLQMDSLKPEDTAVYYCAADLRAYYTVPLWASEYDYWGQGTQVTVSS
notes: as for B13
B15: IL22-354 (VHH)
VHH: EVQLVESGGGLVQPGGSLRLSCAASGFTLDYYAIAWFRQAPGKEREGVSCISTSDGSTYYADSVKGRFTISRDNAKNTVYLQMNSLKPEDTAVYYCAADPSPFFVAPLVDYEYDYWGQGTQVTVSS
notes: as for B13
B16: Humanized IL22-223 (VHH)
VHH: EVQLVESGGGLVQPGGSLRLSCAASGFTLNYYVMSWFRQAPGKEREGVSAISSSDGSTYYADSVKGRFTISRDNSKNTLYLQMNSLRAEDTAVYYCAADLRAYYTVPLWASEYDYWGQGTVSS
notes: not shown: C-terminal His-tag

Experiments:
[1] = biological target: T2, recombinant human CD40-Fc (human, UniProt P25942 21-193); test: ELISA, CD40-Fc coated, VHH at 200 nM
T2 construct: also called rh-CD40-Fc; CD40-hFc
Protocol: (§1) After four times washing with PBST, the plate was incubated with detecting antibody anti-his-HRP (1:4000 dilution) 100 μl per well for one hour with shaking at 60 rpm. The plate was developed with 100 μL of TMB per well in the dark and then stopped by 50 μL of stop solution per well.

[2] = biological target: T2, recombinant human CD40-Fc; test: ELISA, CD40-Fc coated, VHH at 0.064 nM
Protocol: as §1

[3] = biological target: T2, recombinant human CD40-Fc; test: ELISA, CD40-Fc coated, VHH at 0.32 nM
Protocol: as §1

[4] = biological target: T2, recombinant human CD40-Fc; test: ELISA, CD40-Fc coated, VHH at 40 nM
Protocol: as §1

[5] = biological target: T3, Human CD40 antigen (recombinant, BLI) (human, UniProt P25942 21-193); test: BLI, VHH-His on anti-His tips, human CD40 in solution;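 note: kinetics measured at 30 °C in PBS pH 7.2, association tracked for 200 s, then dissociation followed in PBS lacking CD40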
T3 construct: also called rh-CD40

[6] = biological target: T2, recombinant human CD40-Fc; test: ELISA, CD40-Fc coated, VHH at 1.6 nM
Protocol: as §1

[7] = biological target: T2, recombinant human CD40-Fc; test: ELISA, CD40-Fc coated, VHH at 1000 nM
Protocol: as §1

[8] = biological target: T2, recombinant human CD40-Fc; test: ELISA, CD40-Fc coated, VHH at 0.013 nM
Protocol: as §1

[9] = biological target: T2, recombinant human CD40-Fc; test: ELISA, CD40-Fc coated, VHH at 0.0026 nM
Protocol: as §1

[10] = biological target: T2, recombinant human CD40-Fc; test: ELISA, CD40-Fc coated, VHH at 8 nM
Protocol: as §1

EGFR Fc [11] = biological target: T4, EGFR Fc (human, UniProt P00533 25-645); test: ELISA, EGFR Fc coated, VHH at 0.08 nM
T4 construct: also called EGFR-hFc; recombinant human EGFR-Fc
Protocol: (§2) After four rounds of washing with PBST, the plate was incubated with detecting antibody anti-his-HRP (1:4000 dilution) 100 μl per well for one hour with shaking at 60 rpm. The plate was developed with 100 μL of TMB per well in the dark and then stopped by 50 μL of stop solution per well. […] Data was analyzed using GraphPad Prisma 9.1.

EGFR Fc [12] = biological target: T4, EGFR Fc; test: ELISA, EGFR Fc coated, VHH at 50 nM
Protocol: as §2

EGFR Fc [13] = biological target: T4, EGFR Fc; test: ELISA, EGFR Fc coated, VHH at 2 nM
Protocol: as §2

EGFR Fc [14] = biological target: T4, EGFR Fc; test: ELISA, EGFR Fc coated, VHH at 500 nM
Protocol: as §2

EGFR Fc [15] = biological target: T4, EGFR Fc; test: ELISA, EGFR Fc coated
Protocol: as §2

EGFR Fc [16] = biological target: T4, EGFR Fc; test: ELISA, EGFR Fc coated, VHH at 0.4 nM
Protocol: as §2

EGFR Fc [17] = biological target: T4, EGFR Fc; test: ELISA, EGFR Fc coated, VHH at 0.0032 nM
Protocol: as §2

EGFR Fc [18] = biological target: T4, EGFR Fc; test: ELISA, EGFR Fc coated, VHH at 10 nM
Protocol: as §2

EGFR Fc [19] = biological target: T4, EGFR Fc; test: ELISA, EGFR Fc coated, VHH at 0.016 nM
Protocol: as §2

human serum albumin = biological target: T5, human serum albumin (human, UniProt P02768 25-609); test: BLI (Gator), His-tagged VHH on anti-His sensor, HSA 100 nM in solution
T5 construct: also called HSA
Protocol: Kinetic binding analysis of MSA VHHs were performed with Gator Prime system equipped with analyze software. […] The experiments were done at 30° C. Prior to analysis, sensors were socked in Q buffer for 600 sec with shaking at 1000 rpm, and then 2 μM of HIS tagged MSA VHHs were loaded to Anti-His sensors with shaking at 400 rpm for 120 sec. Loaded sensors were transferred into Q buffer for 60 sec. Association of HSA or MSA at 100 nM was initiated and monitored for 120-180 sec with shaking at 1000 rpm, and finally dissociation in Q buffer for 120-180 sec with 1000 rpm shaking. Software V2.0 (Gator Bio) was used for data analysis. The on-rate (Kₒₙ) and off-rate (Kd) were determined by fitting of the association and dissociation phases of each sample. The mathematical model used assumes a 1:1 stoichiometry, fitting only one analyte in solution binding to one binding site on the surface. The equilibrium dissociation constant (KD), a measure for affinity, was then calculated as the ratio of Kd and Kₒₙ.

recombinant human IL-22 = biological target: T1, recombinant human IL-22; test: BLI (Octet), His-tagged VHH on HIS1K tips, IL-22 in solution
Protocol: Bio-Layer Interferometry (BLI), a label-free technology was used for measuring the binding kinetics of positive llama single domain antibodies. Affinity measurements were performed with Octet QKe equipped with Anti-Penta-His capture (HIS1K) biosensor tips (ForteBio®). The assay was performed at 30 C in 1×PBS buffer (Gibco®, PBS pH7.2). Samples were agitated at 1000 rpm. Prior to analysis, sensors were humidified for 15 minutes. Purified single domain antibodies was tested for its binding capacity with HIS1K sensor tips. Tips were loaded using 20 μg/ml of single domain antibodies. Loading proceeded for 300 s resulting in capture levels of between 1.8 and 2 nm. […] Association was initiated and monitored for 200 s, after which tips were transferred to 1×PBS buffer without Factor protein (Gibco, PBS pH 7.2), in order to monitor dissociation. Sensor data was collected throughout the experiments, processed, and analyzed using the Octet data analysis software 7 (Forte Bio).

T2 sequence (P25942 21-193): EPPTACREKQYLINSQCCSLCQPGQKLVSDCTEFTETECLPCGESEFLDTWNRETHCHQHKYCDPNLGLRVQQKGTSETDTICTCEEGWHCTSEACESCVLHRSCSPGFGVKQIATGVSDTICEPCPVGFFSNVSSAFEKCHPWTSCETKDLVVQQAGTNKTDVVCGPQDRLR
T3 sequence (P25942 21-193 limits assumed): as the sequence (P25942 21-193) above

Binder | OD450 [1] | OD450 [2] | OD450 [3] | OD450 [4] | Kd [5] [nM] | koff [5] [s⁻¹] | kon [5] [M⁻¹ s⁻¹] | OD450 [6] | OD450 [7] | OD450 [8] | OD450 [9] | OD450 [10] | also measured
B1 | 0.166 | 0.062 | 0.06 | 0.076 | 3.12 | 0.0011 | 351000 | 0.062 | 0.479 | 0.063 | 0.064 | 0.061 | 
B2 | 0.123 | 0.07 | 0.066 | 0.067 | 4.06 | 0.00372 | 917000 | 0.062 | 0.419 | 0.075 | 0.061 | 0.059 | 
B3 | 0.126 | 0.053 | 0.063 | 0.066 | 0.469 | 0.000625 | 1.33e+06 | 0.056 | 0.569 | 0.055 | 0.06 | 0.063 | 
B4 | 1.62 | 0.088 | 0.332 | 1.67 | < 0.001 | 1e-06 | 721000 | 1.01 | 1.67 | 0.092 | 0.056 | 1.6 | 
B5 | 1.69 | 0.074 | 0.248 | 1.72 | < 0.001 | 1e-06 | 779000 | 0.866 | 1.68 | 0.056 | 0.055 | 1.66 | 
B6 | 1.52 | 0.091 | 0.293 | 1.72 | 0.0047 | 3.59e-06 | 765000 | 0.94 | 1.64 | 0.062 | 0.058 | 1.59 | 
B7 |  |  |  |  |  |  |  |  |  |  |  |  | OD450 (EGFR Fc [11]): 0.068; OD450 (EGFR Fc [12]): 0.147; OD450 (EGFR Fc [13]): 0.073; OD450 (EGFR Fc [14]): 0.503; EC50 (EGFR Fc [15]): 2760 nM; OD450 (EGFR Fc [16]): 0.067; OD450 (EGFR Fc [17]): 0.075; OD450 (EGFR Fc [18]): 0.093; OD450 (EGFR Fc [19]): 0.072
B8 |  |  |  |  |  |  |  |  |  |  |  |  | OD450 (EGFR Fc [11]): 1.07; OD450 (EGFR Fc [12]): 2.33; OD450 (EGFR Fc [13]): 2.34; OD450 (EGFR Fc [14]): 2.23; EC50 (EGFR Fc [15]): 0.105 nM; OD450 (EGFR Fc [16]): 2; OD450 (EGFR Fc [17]): 0.196; OD450 (EGFR Fc [18]): 2.44; OD450 (EGFR Fc [19]): 0.32
B9 |  |  |  |  |  |  |  |  |  |  |  |  | OD450 (EGFR Fc [11]): 0.5; OD450 (EGFR Fc [12]): 2.2; OD450 (EGFR Fc [13]): 2.22; OD450 (EGFR Fc [14]): 2.24; EC50 (EGFR Fc [15]): 0.237 nM; OD450 (EGFR Fc [16]): 1.61; OD450 (EGFR Fc [17]): 0.125; OD450 (EGFR Fc [18]): 2.42; OD450 (EGFR Fc [19]): 0.193
B10 |  |  |  |  |  |  |  |  |  |  |  |  | OD450 (EGFR Fc [11]): 1.15; OD450 (EGFR Fc [12]): 1.47; OD450 (EGFR Fc [13]): 1.46; OD450 (EGFR Fc [14]): 1.5; EC50 (EGFR Fc [15]): 0.044 nM; OD450 (EGFR Fc [16]): 1.32; OD450 (EGFR Fc [17]): 0.409; OD450 (EGFR Fc [18]): 1.54; OD450 (EGFR Fc [19]): 0.569
B11 |  |  |  |  |  |  |  |  |  |  |  |  | koff (human serum albumin): 0.0225 s⁻¹
B12 |  |  |  |  |  |  |  |  |  |  |  |  | Kd (human serum albumin): 20.9 nM; koff (human serum albumin): 0.00125 s⁻¹; kon (human serum albumin): 59800 M⁻¹ s⁻¹
B13 |  |  |  |  |  |  |  |  |  |  |  |  | Kd (recombinant human IL-22): 0.817 nM; koff (recombinant human IL-22): 0.000405 s⁻¹; kon (recombinant human IL-22): 496000 M⁻¹ s⁻¹
B14 |  |  |  |  |  |  |  |  |  |  |  |  | Kd (recombinant human IL-22): 1.29 nM; koff (recombinant human IL-22): 0.00036 s⁻¹; kon (recombinant human IL-22): 278000 M⁻¹ s⁻¹
B15 |  |  |  |  |  |  |  |  |  |  |  |  | Kd (recombinant human IL-22): 0.366 nM; koff (recombinant human IL-22): 0.000184 s⁻¹; kon (recombinant human IL-22): 503000 M⁻¹ s⁻¹
B16 |  |  |  |  |  |  |  |  |  |  |  |  | Kd (recombinant human IL-22): 1.07 nM; koff (recombinant human IL-22): 0.000547 s⁻¹; kon (recombinant human IL-22): 509000 M⁻¹ s⁻¹
